Measured values as given in patent publication US20080267882A1, “Imaging compounds, methods of making imaging compounds, methods of imaging, therapeutic compounds, methods of making therapeutic compounds, and methods of therapy” (Stanford University, priority 2007, published 2008).
Where two headings read alike, the source gives them in different places. Each block holds one compound with its values, some of them ahead of it.

Experiments:
integrin αvβ3 = target: T1, integrin αvβ3 (Homo sapiens, UniProt P05106+P06756); experiment: competitive cell binding assay using ^125I-echistatin on U87MG cells; details: for IC50: n=3, read-out: IC50 (inhibition of ^125I-echistatin binding to U87MG cells)
T1 construct: evaluated using U87MG cells (integrin αvβ3-positive); endogenous in cells; host or cells: U87MG human glioblastoma cells (ATCC)
Protocol: Experiments were performed on U87MG human glioblastoma cells with triplicate samples as previously reported.
In vitro integrin αvβ3-binding affinities and specificities of RGD4, PRGD4 and FPRGD4 were assessed via displacement cell binding assays using ^125I-echistatin as the integrin αvβ3-specific radioligand. Experiments were performed on U87MG human glioblastoma cells by the method previously described (J Nucl Med. 2005;46:1707-1718 J Nucl Med. 2006;47:1172-1180, which is incorporated herein by reference for the corresponding discussion). […] Experiments were performed with triplicate samples.
Experiments were performed with triplicate samples.
In vitro integrin-binding affinity and specificity of RGD multimers and DOTA-RGD multimers were assessed via competitive cell binding assays using ^125I-echistatin as the integrin αvβ3-specific radioligand (J Nucl Med. 2005;46:1707-1718, which is incorporated herein by reference for the corresponding discussion). […] Experiments were performed with triplicate samples.

U87MG cells = experiment: cell adhesion assay on vitronectin coated plates; format: cell-based, human; details: vitronectin coated plates; n=4; read-out: calculated IC50 (inhibition of U87MG cell adhesion)
Protocol: Ninety-six well plates were coated with 2 μg/mL of fibronectin or vitronectin (Sigma-Aldrich) in PBS at 4° C. overnight and treated with 2% bovine serum albumin (BSA) for 1 h at 37° C. U87MG cells (human glioblastoma, ATCC; 2×10^5 cells/mL) with various concentrations of RGD multimers (50 nM, 200 nM, 800 nM) in 100 μL serum-free Dulbecco's modified Eagle's medium (DMEM) containing 0.1% BSA were incubated for 20 min at 37° C. The resulting mixture was added to the plates and incubated for 1 h at 37° C. Plates treated with BSA only were used as negative control. After removal of the medium by aspiration, 0.04% crystal violet solution was added and incubated for 10 min at room temperature. The wells were washed three times with PBS and 20 μL Triton X-100 were added for permeabilization. Distilled water (80 μL) was then added and the number of adherent cells was assessed with a microplate reader (Tecan; measurement wavelength: 550 nm; reference wavelength: 630 nm).

[1] = biodistribution of ^3H-PTX and ^3H-RGD2−PTX in MDA-MB-435 tumor-bearing mice; format: in vivo, mouse; details: female, athymic nude (nu/nu), mouse, iv, 2.9 umol/kg, total radioactivity
Protocol: (§1) All animal experiments were performed in compliance with the guidelines for the care and use of research animals established by the Stanford University's Animal Studies Committee. Female athymic nude mice (nu/nu) were obtained from Harlan (Indianapolis, Ind.) at 6-8 weeks of age and were kept under sterile conditions. The MDA-MB-435 cells were harvested and suspended in sterile PBS at a concentration of 5×10^7 cells/mL. Viable cells (5×10^6) in PBS (100 μL) were injected orthotopically in the right mammary fat pad. […] Tumor growth was followed by caliper measurements of perpendicular measures of the tumor. The tumor volume was estimated by the formula: tumor volume=a×(b^2)/2, where a and b are the tumor length and width respectively in mm.
(§2) The animals were euthanized at 4, 24 and 48 h post injection and major organs and tissues were collected correspondingly. Approximately 100 mg of the tissue was added to glass scintillation vials containing 1 mL of tissue solubilizer SoluEne®-350 (Perkin-Elmer, Waltham, Mass.). These samples were digested at 55° C. for overnight followed by bleaching to obtain the decolorized samples. Chemiluminescence was reduced by the addition of glacial acetic acid. Hionic-Fluor liquid scintillation cocktail (Perkin-Elmer) was added to all samples, which were then counted with a Tri-Carb 2800TR liquid scintillation Analyzer (Perkin-Elmer).

[2] = test system: MDA-MB-435 tumor-bearing mice; experiment: as above; format: in vivo, mouse
Protocol: as §1, §2

[3] = tumor/kidney, read-out: tumor/kidney ratio
[4] = tumor/liver, read-out: tumor/liver ratio
[5] = tumor/muscle, read-out: tumor/muscle ratio

- IC50 (integrin αvβ3; Example 2): 37.7 ± 7 nM
SMILES: N=C(N)NCCC[C@@H]1NC(=O)[C@H](CCCCNC(=O)CC[C@H](NC(=O)CC[C@H](NC(=O)COCCOCCOCCNC(=O)c2ccc(F)cc2)C(=O)N[C@@H](CCC(=O)NCCCC[C@@H]2NC(=O)[C@@H](Cc3ccc(O)cc3)NC(=O)[C@H](CC(=O)O)NC(=O)CNC(=O)[C@H](CCCNC(=N)N)NC2=O)C(=O)NCCCC[C@@H]2NC(=O)[C@@H](Cc3ccc(O)cc3)NC(=O)[C@H](CC(=O)O)NC(=O)CNC(=O)[C@H](CCCNC(=N)N)NC2=O)C(=O)NCCCC[C@@H]2NC(=O)[C@@H](Cc3ccc(O)cc3)NC(=O)[C@H](CC(=O)O)NC(=O)CNC(=O)[C@H](CCCNC(=N)N)NC2=O)NC(=O)[C@@H](Cc2ccc(O)cc2)NC(=O)[C@H](CC(=O)O)NC(=O)CNC1=O [FPRGD4, FB-NH-mini-PEG-CO-E{E[c(RGDyK)]2}2]

- fold higher integrin αvβ3 affinity than NOTA-RGD1 (integrin αvβ3; Example 5): 13 fold
- fold increase of integrin avidity compared to NOTA-RGD2 (integrin αvβ3; Example 5): 3 fold
- IC50 (integrin αvβ3; Example 5): 16.1 ± 3.1 nM
SMILES: N=C(N)NCCC[C@@H]1NC(=O)[C@H](CCCCNC(=O)CC[C@H](NC(=O)CC[C@H](NC(=S)Nc2ccc(C[C@H]3CN(CC(=O)O)CCN(CC(=O)O)CCN3CC(=O)O)cc2)C(=O)N[C@@H](CCC(=O)NCCCC[C@@H]2NC(=O)[C@@H](Cc3ccc(O)cc3)NC(=O)[C@H](CC(=O)O)NC(=O)CNC(=O)[C@H](CCCNC(=N)N)NC2=O)C(=O)NCCCC[C@@H]2NC(=O)[C@@H](Cc3ccc(O)cc3)NC(=O)[C@H](CC(=O)O)NC(=O)CNC(=O)[C@H](CCCNC(=N)N)NC2=O)C(=O)NCCCC[C@@H]2NC(=O)[C@@H](Cc3ccc(O)cc3)NC(=O)[C@H](CC(=O)O)NC(=O)CNC(=O)[C@H](CCCNC(=N)N)NC2=O)NC(=O)[C@@H](Cc2ccc(O)cc2)NC(=O)[C@H](CC(=O)O)NC(=O)CNC1=O [NOTA-RGD4, NOTA-E{E[c(RGDyK)]2}2]

- IC50 (integrin αvβ3; Example 2): 46.5 ± 5.3 nM
SMILES: N=C(N)NCCC[C@@H]1NC(=O)[C@H](CCCCNC(=O)CC[C@H](NC(=O)CC[C@H](NC(=O)COCCOCCOCCN)C(=O)N[C@@H](CCC(=O)NCCCC[C@@H]2NC(=O)[C@@H](Cc3ccc(O)cc3)NC(=O)[C@H](CC(=O)O)NC(=O)CNC(=O)[C@H](CCCNC(=N)N)NC2=O)C(=O)NCCCC[C@@H]2NC(=O)[C@@H](Cc3ccc(O)cc3)NC(=O)[C@H](CC(=O)O)NC(=O)CNC(=O)[C@H](CCCNC(=N)N)NC2=O)C(=O)NCCCC[C@@H]2NC(=O)[C@@H](Cc3ccc(O)cc3)NC(=O)[C@H](CC(=O)O)NC(=O)CNC(=O)[C@H](CCCNC(=N)N)NC2=O)NC(=O)[C@@H](Cc2ccc(O)cc2)NC(=O)[C@H](CC(=O)O)NC(=O)CNC1=O [PRGD4, NH2-mini-PEG-CO-E{E[c(RGDyK)]2}2]

SMILES: N=C(N)NCCC[C@@H]1NC(=O)[C@H](CCCCNC(=O)CC[C@H](N)C(=O)NCCCC[C@@H]2NC(=O)[C@@H](Cc3ccc(O)cc3)NC(=O)[C@H](CC(=O)O)NC(=O)CNC(=O)[C@H](CCCNC(=N)N)NC2=O)NC(=O)[C@@H](Cc2ccc(O)cc2)NC(=O)[C@H](CC(=O)O)NC(=O)CNC1=O [RGD2, E[c(RGDyK)]2, reference compound]
- IC50 (U87MG cells): 700 nM

SMILES: CC(=O)O[C@H]1C(=O)[C@@]2(C)[C@H]([C@H](OC(=O)c3ccccc3)[C@]3(O)C[C@H](OC(=O)[C@H](OC(=O)CCC(=O)N[C@@H](CCC(=O)NCCCC[C@@H]4NC(=O)[C@@H](Cc5ccc(O)cc5)NC(=O)[C@H](CC(=O)O)NC(=O)CNC(=O)[C@H](CCCNC(=N)N)NC4=O)C(=O)NCCCC[C@@H]4NC(=O)[C@@H](Cc5ccc(O)cc5)NC(=O)[C@H](CC(=O)O)NC(=O)CNC(=O)[C@H](CCCNC(=N)N)NC4=O)[C@@H](NC(=O)c4ccccc4)c4ccccc4)C(C)=C1C3(C)C)[C@]1(OC(C)=O)CO[C@@H]1C[C@@H]2O [^3H-RGD2−PTX]
- tissue to tissue ratio at 4 h [1, 3]: 0.25
- tissue to tissue ratio at 24 h [1, 3]: 0.68
- tissue to tissue ratio at 48 h [1, 3]: 0.53
- tissue to tissue ratio at 4 h [1, 4]: 0.29
- tissue to tissue ratio at 24 h [1, 4]: 0.45
- tissue to tissue ratio at 48 h [1, 4]: 0.27
- tissue to tissue ratio at 4 h [1, 5]: 2.86
- tissue to tissue ratio at 24 h [1, 5]: 2.82
- tissue to tissue ratio at 48 h [1, 5]: 1.74
- tissue concentration, Blood ([2]; 4 h): 101.7 ± 30.8 ng/g
- tissue concentration, Heart ([2]; 4 h): 228.7 ± 29.8 ng/g
- tissue concentration, Intestine ([2]; 4 h): 127.8 ± 20.3 ng/g
- tissue concentration, Kidney ([2]; 4 h): 1421.6 ± 289.8 ng/g
- tissue concentration, Liver ([2]; 4 h): 1252.9 ± 109.9 ng/g
- tissue concentration, Lung ([2]; 4 h): 300.4 ± 30.9 ng/g
- tissue concentration, MDA-MB-435 tumor ([2]; 4 h): 357.5 ± 62.62 ng/g
- tissue concentration, Muscle ([2]; 4 h): 125.1 ± 24.0 ng/g
- tissue concentration, Skin ([2]; 4 h): 144.1 ± 15.9 ng/g
- tissue concentration, Spleen ([2]; 4 h): 322.3 ± 59.3 ng/g
- tissue concentration, Stomach ([2]; 4 h): 119.0 ± 16.7 ng/g
- tumor/muscle ratio ([2]; 4 h): 2.86
- tissue concentration, Liver ([2]; 4 h, listed as 3H-RGD2-PTX): 1252.9 ± 109.9 ng/g
- tissue concentration, MDA-MB-435 tumor ([2]; 4 h, listed as 3H-RGD2-PTX): 357.5 ± 62.6 ng/g
- tissue concentration, Blood ([2]; 24 h): 143.1 ± 18.0 ng/g
- tissue concentration, Heart ([2]; 24 h): 170.7 ± 18.6 ng/g
- tissue concentration, Intestine ([2]; 24 h): 52.1 ± 7.5 ng/g
- tissue concentration, Kidney ([2]; 24 h): 338.9 ± 22.1 ng/g
- tissue concentration, Liver ([2]; 24 h): 510.4 ± 28.9 ng/g
- tissue concentration, Lung ([2]; 24 h): 238.6 ± 75.6 ng/g
- tissue concentration, MDA-MB-435 tumor ([2]; 24 h): 229.4 ± 50.4 ng/g
- tissue concentration, Muscle ([2]; 24 h): 81.2 ± 11.4 ng/g
- tissue concentration, Skin ([2]; 24 h): 87.2 ± 16.1 ng/g
- tissue concentration, Spleen ([2]; 24 h): 228.7 ± 39.4 ng/g
- tissue concentration, Stomach ([2]; 24 h): 71.63 ± 9.5 ng/g
- tumor/muscle ratio ([2]; 24 h): 2.82
- tissue concentration, MDA-MB-435 tumor ([2]; 24 h, listed as 3H-RGD2-PTX): 229.4 ± 50.4 ng/g
- tissue concentration, Blood ([2]; 48 h): 225.4 ± 12.8 ng/g
- tissue concentration, Heart ([2]; 48 h): 222.5 ± 16.2 ng/g
- tissue concentration, Intestine ([2]; 48 h): 50.8 ± 9.5 ng/g
- tissue concentration, Kidney ([2]; 48 h): 281.8 ± 32.6 ng/g
- tissue concentration, Liver ([2]; 48 h): 545.3 ± 30.6 ng/g
- tissue concentration, Lung ([2]; 48 h): 207.8 ± 48.2 ng/g
- tissue concentration, MDA-MB-435 tumor ([2]; 48 h): 148.8 ± 40.2 ng/g
- tissue concentration, Muscle ([2]; 48 h): 85.6 ± 28.0 ng/g
- tissue concentration, Skin ([2]; 48 h): 66.0 ± 9.1 ng/g
- tissue concentration, Spleen ([2]; 48 h): 227.9 ± 28.2 ng/g
- tissue concentration, Stomach ([2]; 48 h): 71.7 ± 12.2 ng/g
- tumor/muscle ratio ([2]; 48 h): 1.74
- tissue concentration, MDA-MB-435 tumor ([2]; 48 h, listed as 3H-RGD2-PTX): 148.8 ± 40.2 ng/g
